{"source": "paper PMC4580983", "about": "(Nature Communications, 2015)", "key": {"PF4 tetramer (human PF4)": {"biological_target": "T1, PF4 tetramer (human PF4) (human, UniProt P02776)", "T1 construct": "platelet factor 4 (PF4), human, wild type, same construct as m1, as the tetramer; Same protein as m1; also called hPF4 tetramer", "assay": "crystal structure; KKO-Fab (5 mg/ml) mixed with hPF4, on ice overnight; hanging drop, 16 °C, 7% PEG6000, 0.1 M Tris-HCl pH 7.8; 4.10 Å", "settings": "both partners purified"}, "[1]": {"biological_target": "T2, wild-type human platelet factor 4 (hPF4) (human, UniProt P02776)", "T2 construct": "platelet factor 4 (PF4), human, wild type, expressed from plasmid pMT/BiP/V5-His; Probably the mature 70-residue PF4 behind the BiP signal of the vector; also called wtPF4; rPF4", "assay": "ELISA; Immulon 4 HBX plates coated overnight with PF4 or PF4 mutant at 5 ug/ml, blocked with 1% BSA in PBS; antibody in solution; A405", "settings": "both partners purified"}, "[2]": {"biological_target": "the molecule itself", "assay": "crystal structure; hPF4 (7 mg/ml) with six-fold molar excess fondaparinux in PBS and 0.3 M NaCl; hanging drop, 16 °C, 2% PEG4000, 17% MPD, 0.1 M sodium acetate pH 5.6; 2.50 Å"}}}
{"binder": "KKO-Fab (Fab fragment of the murine monoclonal HIT-like anti-PF4 antibody KKO) (Fab, V domains shown, From murine IgG2b kappa KKO) VH: VQLQQSGAELVKPGASVKLSCKASGYTFTNYFIYWVKQRPGQGLEWIGEINPRNGDTDFNEKFESRATLTVDKSSSTAYMQLSSLTSEDSAIYYCTRSPYGNNYGFTYWGQGTLVTVSA VL: DIQMIQSQKFMSTSVGDRVTVTCKASQNVGTNVAWYQQKPGQSPNALIYSASYRYSGVPDRFTGSGSGTDFTLTITNVQSEDLADYFCQQYNSYPLTFGTGTKLDLK", "values": [{"measurement": "binding result", "setting": "PF4 tetramer (human PF4)", "value": "binds"}]}
{"binder": "KKO (murine anti-human PF4 IgG2bκ monoclonal antibody) (antibody, V domains shown, Fab part as the heavy chain of m3 (PDB 4R97, PDB 4R9Y); as the light chain of m3 (PDB 4R97, PDB 4R9Y); IgG2b kappa, whole IgG; also called HIT antibody KKO; HIT-like antibody KKO; source: purified from conditioned PFHM-II media (protein A-agarose); copies: 2 + 2) VH: VQLQQSGAELVKPGASVKLSCKASGYTFTNYFIYWVKQRPGQGLEWIGEINPRNGDTDFNEKFESRATLTVDKSSSTAYMQLSSLTSEDSAIYYCTRSPYGNNYGFTYWGQGTLVTVSA VL: DIQMIQSQKFMSTSVGDRVTVTCKASQNVGTNVAWYQQKPGQSPNALIYSASYRYSGVPDRFTGSGSGTDFTLTITNVQSEDLADYFCQQYNSYPLTFGTGTKLDLK", "values": [{"measurement": "binding result", "setting": "[1]", "value": "binds"}]}
{"binder": "wild-type human platelet factor 4 (hPF4) (natural protein, platelet factor 4 (PF4), human, wild type, expressed from plasmid pMT/BiP/V5-His; Probably the mature 70-residue PF4 behind the BiP signal of the vector; also called wtPF4; rPF4) EAEEDGDLQCLCVKTTSQVRPRHITSLEVIKAGPHCPTAQLIATLKNGRKICLDLQAPLYKKIIKKLLES", "values": [{"measurement": "stoichiometry N", "setting": "[2]", "value": 4}]}
